Laboratory results taken from the RNAGym collection of RNA variant scans (doi:10.7554/elife.80360).

B1: CPEB3 Ribozyme (parent)
chain: GGGGGCCACAGCAGAAGCGUUCACGUCGCGGCCCCUGUCAGAUUCUGGUGAAUCUGCGAAUUCUGCUGU

Variants of: B1
Experiment: self-cleavage, relative activity (ratio to wild type); higher = more cleavage; co-transcriptional

Compared with GGCGGCCACAGCAGAAGCGUUCUCGUCGCGGCCCCUGUCAGAUUCUGGUGAAUCUGCGAAUUCUGCUGU, GGCGGCCACAGCAGAAGCGUUCACGUAGCGGCCCCUGUCAGAUUCUGGUGAAUCUGCGAAUUCUGCUGU is lower in self-cleavage: 0.28 for the first, 0.0183 for the second.

Compared with GGAGGCCACAGCAGAAGCGUUCACGUCGCGGCCCCUGUCAGAUUCUGGUGAAUCUGCGAAGUCUGCUGU, GGAGGCCACAGCAGAAGCGUUCACGUCGCGGCCCCUGUCAGAUUCUGGUGAAACUGCGAAUUCUGCUGU is higher in self-cleavage: 0.278 for the first, 0.44 for the second.

Going from GGCGGCCACAGCAGAAGCGUUCACGUCGCGGCCCCUGUCAGAUUCUGGUGUAUCUGCGAAUUCUGCUGU to GGCGGCCACAGCAGAAGCUUUCACGUCGCGGCCCCUGUCAGAUUCUGGUGAAUCUGCGAAUUCUGCUGU, the self-cleavage falls from 0.115 to 0.0242.

First: GGCGGCCACAGCAGAAGCGUUCACGUCGCGGCCCCUGUCAGAUUGUGGUGAAUCUGCGAAUUCUGCUGU
Second: GGCGGCCACAGCAGAAGCGUUCACGUCGCGGCCCCUGUCAGGUUCUGGUGAAUCUGCGAAUUCUGCUGU
The self-cleavage of the first is lower: 0.0888 for the first, 0.106 for the second.

Compared with GGAGGCCACAGCAGAAGCGUUCACGUCGCGGCCCCUGUCAGAAUCUGGUGAAUCUGCGAAUUCUGCUGU, GGAGGCCACAGCAGAAGCGUUCACGUCGCGGCCCCUGUCAGAGUCUGGUGAAUCUGCGAAUUCUGCUGU is higher in self-cleavage: 0.356 for the first, 0.422 for the second.

Compared with GGAGGCCACAGCAGAAGCGUUCACGUCGCGGCCCCUGUCAGACUCUGGUGAAUCUGCGAAUUCUGCUGU, GGAGGCCACAGCAGAAGCGUUCACGUCGCGGCCCCCGUCAGAUUCUGGUGAAUCUGCGAAUUCUGCUGU is higher in self-cleavage: 0.41 for the first, 0.433 for the second.

Compared with GGAGGCCACAGCAGAAGCGUUCACGUCGCGGCCCCAGUCAGAUUCUGGUGAAUCUGCGAAUUCUGCUGU, GGAGGCCACAGCAGAAGCGUUCACGUCGCGGCCCCGGUCAGAUUCUGGUGAAUCUGCGAAUUCUGCUGU is higher in self-cleavage: 0.0867 for the first, 0.206 for the second.

Compared with GGCGGCCACAGCAGAAGCGUUCACGUCGCGGCCCCUGUCAGAUUCUGGUGAAUCUGCGAAUUGUGCUGU, GGCGGCCACAGCAGAAGCGUUCACGUCGCGGCCCCUGUCAGAUUCUGGUGAAUCUGCGAAUUUUGCUGU is higher in self-cleavage: 0.0687 for the first, 0.171 for the second.

First: GGCGGCCACAGCAGAAGCGUUCACGUCGCGGCCCCUGUCAGAUUCUGGUGAAACUGCGAAUUCUGCUGU
Second: GGAGGCCACAGCAGAAGCGUUCACGUCGCGGCCCCUGACAGAUUCUGGUGAAUCUGCGAAUUCUGCUGU
The self-cleavage of the first is lower: 0.0705 for the first, 0.514 for the second.

First: GGAGGCCACAGCAGAAGCGUUCACGUCGCGGCCCCUGCCAGAUUCUGGUGAAUCUGCGAAUUCUGCUGU
Second: GGAGGCCACAGCAGAAGCGUUCACGUCGCGGCCCCUGUCAGAUUCAGGUGAAUCUGCGAAUUCUGCUGU
The self-cleavage of the first is lower: 0.419 for the first, 0.67 for the second.

Compared with GGAGGCCACAGCAGAAGCGUUCACGUCGCGGCCCCUGUCAGAUUCCGGUGAAUCUGCGAAUUCUGCUGU, GGCGGCCACAGCAGAAGCGUUCACGUCGCGGCCCCUGUCAGAUUCUGGUGAAUCUGCGAAAUCUGCUGU is lower in self-cleavage: 0.597 for the first, 0.0406 for the second.

Going from GGCGGCCACAGCAGAAGCGUUCACGUCGCGGCCCCUGUCAGAUUCUGAUGAAUCUGCGAAUUCUGCUGU to GGCGGCCACAGCAGAAGCGUUCACGUCGCGGCCCCUGUCAGAUUCUGGUGAAUCUGCCAAUUCUGCUGU, the self-cleavage falls from 0.117 to 0.0803.

Going from GGCGGCCACAGCAGAAGCGUUCACGUCGCGGCGCCUGUCAGAUUCUGGUGAAUCUGCGAAUUCUGCUGU to GGCGGCCACAGCAGUAGCGUUCACGUCGCGGCCCCUGUCAGAUUCUGGUGAAUCUGCGAAUUCUGCUGU, the self-cleavage rises from 0.0238 to 0.0699.

Going from GGCGGCCACAGCAGAAGCGUUCACGUCGCGGCCCCUGUCAGAUUCUGGAGAAUCUGCGAAUUCUGCUGU to GGAGGCCACAGCAGAAGCGUUCACGUCGCGGCCCCUGUCAGAUUCUGGCGAAUCUGCGAAUUCUGCUGU, the self-cleavage rises from 0.168 to 0.705.

First: GGCGGCCACAGCAGAAGCGUUCACGUCGCGGCCCCUGUAAGAUUCUGGUGAAUCUGCGAAUUCUGCUGU
Second: GGCGGCCACAGCAGAAGCGUUCACGUCGCGGCCCCUGUCAGAUUCUGGUGAAUCUGCGUAUUCUGCUGU
The self-cleavage of the first is higher: 0.0598 for the first, 0.0529 for the second.

Going from GGCGCCCACAGCAGAAGCGUUCACGUCGCGGCCCCUGUCAGAUUCUGGUGAAUCUGCGAAUUCUGCUGU to GGCGGCCACAGCAGAAGCGUUCACGUCGAGGCCCCUGUCAGAUUCUGGUGAAUCUGCGAAUUCUGCUGU, the self-cleavage rises from 0.0475 to 0.0865.

Compared with GGCGGCCACAGCAGAAGCGUUCACGUCGUGGCCCCUGUCAGAUUCUGGUGAAUCUGCGAAUUCUGCUGU, GGCGGCCACAGCAGAAGCGUUCACGUCGCGGCCCCUGUCAGAUUCGGGUGAAUCUGCGAAUUCUGCUGU is higher in self-cleavage: 0.0376 for the first, 0.068 for the second.

Going from GGCGGCCACAGCAGAAGCGUUCACGUCGCGGGCCCUGUCAGAUUCUGGUGAAUCUGCGAAUUCUGCUGU to GGCGGCCACAGCAGAAGCGUUCACGUCGCGGUCCCUGUCAGAUUCUGGUGAAUCUGCGAAUUCUGCUGU, the self-cleavage rises from 0.0514 to 0.0592.

First: GGAGGCCACAGCAGAAGCGCUCACGUCGCGGCCCCUGUCAGAUUCUGGUGAAUCUGCGAAUUCUGCUGU
Second: GGAGGCCACAGCAGAAGCGGUCACGUCGCGGCCCCUGUCAGAUUCUGGUGAAUCUGCGAAUUCUGCUGU
The self-cleavage of the first is lower: 0.0517 for the first, 0.11 for the second.

With GGCGGCCACAGCAGAAGCGUUCACGACGCGGCCCCUGUCAGAUUCUGGUGAAUCUGCGAAUUCUGCUGU the self-cleavage was 0.0495.
